Experimental data: PMC4021333

Target: Dipeptidyl aminopeptidase BII (DAP BII) from Pseudoxanthomonas mexicana WO24, wild type (Pseudoxanthomonas mexicana WO24) (UniProt V5YM14)
Assay: enzyme inhibition assay

Dipeptidyl aminopeptidase BII (DAP BII) from Pseudoxanthomonas mexicana WO24, wild type (Pseudoxanthomonas mexicana WO24), sequence (V5YM14 25-722): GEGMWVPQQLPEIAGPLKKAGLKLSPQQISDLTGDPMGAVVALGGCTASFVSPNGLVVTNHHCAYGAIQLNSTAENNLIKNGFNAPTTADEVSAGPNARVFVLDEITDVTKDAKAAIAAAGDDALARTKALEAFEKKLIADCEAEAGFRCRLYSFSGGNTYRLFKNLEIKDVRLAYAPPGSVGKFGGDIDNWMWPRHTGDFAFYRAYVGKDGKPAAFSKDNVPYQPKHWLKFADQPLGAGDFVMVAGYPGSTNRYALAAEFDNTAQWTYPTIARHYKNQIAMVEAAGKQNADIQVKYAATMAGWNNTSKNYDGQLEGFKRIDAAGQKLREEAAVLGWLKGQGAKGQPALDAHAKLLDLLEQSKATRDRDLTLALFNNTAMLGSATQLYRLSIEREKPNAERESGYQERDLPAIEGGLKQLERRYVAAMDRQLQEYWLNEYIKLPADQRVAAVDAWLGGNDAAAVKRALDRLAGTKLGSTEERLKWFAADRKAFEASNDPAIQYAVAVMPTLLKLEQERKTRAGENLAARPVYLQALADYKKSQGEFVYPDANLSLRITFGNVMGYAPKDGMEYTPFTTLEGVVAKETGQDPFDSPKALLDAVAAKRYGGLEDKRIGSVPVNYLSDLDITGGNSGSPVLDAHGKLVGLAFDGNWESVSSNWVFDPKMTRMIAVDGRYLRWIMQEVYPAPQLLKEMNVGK

Ki: 410 µM
Substance: dipeptide Val-Tyr
